Kd data for two substances are collected here from publication doi:10.1101/2024.02.29.582761.

Test in all cases: BLI
(BLI is a label-free optical method that tracks binding on a fibre tip over time.)

The target in assay [1] is His-SUMO-GroTAC1 (E. coli).
Assay [2] deals with His-SUMO-XB-GGS peptide (E. coli).
In the next assay the target is His-SUMO-GGS-SBP peptide.

Consider “ClpX (from UniProt P0A6H1 1-424) (enzyme)”, for which the results for the Kd in assay [1] and in assay [2] were 70 nM and 65 nM, respectively.
Take “GroEL (from UniProt P0A6F5 1-548) (natural protein)”: the Kd with His-SUMO-GGS-SBP peptide was determined as 94 nM; in assay [1] it was 154 nM.

Broadly, the Kd is the concentration at which binding is half-saturated. Low readings indicate higher affinity, high ones lower affinity.
